T1: NS5A-TP2 (Homo sapiens, UniProt Q7Z4H3)
T1 construct: expressed in transfected cells; host or cells: yeast
T1 sequence (Q7Z4H3 1-204): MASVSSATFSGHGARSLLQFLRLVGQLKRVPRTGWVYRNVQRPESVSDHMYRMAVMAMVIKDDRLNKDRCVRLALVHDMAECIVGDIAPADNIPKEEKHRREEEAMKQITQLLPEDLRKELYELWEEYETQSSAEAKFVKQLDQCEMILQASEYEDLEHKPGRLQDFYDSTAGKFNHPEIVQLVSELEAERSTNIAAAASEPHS


How the values were obtained:
MCF-7 cells = experiment: Colony formation assay (cell proliferation assay, crystal violet); format: cell-based; conditions: MCF-7, continuous expression 2 weeks, compared to AptaLib and human thioredoxin
Experimental: (§1) (B) Colony formation assays. Hela or MCF-7 cells were transfected with plasmids directing the stable expression of the Cdk inhibitor p21, a library of peptide aptamers from pBK1 (AptaLib), Human thioredoxin (HTRX), and peptide aptamers R7G44, R5G42, R5G52. The cells were cultured for two weeks and the colonies were stained with crystal violet.
(§2) The inventors wished to establish the antiproliferative activity of these peptide aptamers using alternative cellular models and a non-retroviral vector to express individually each aptamer. They cloned the aptamer coding genes into a vector bearing a hygromycin selection marker. They also subcloned the pBK1 library into this vector, to create “AptaLib”. They continuously expressed the aptamers, the empty thioredoxin scaffold or AptaLib in Hela and MCF-7 cells for 2 weeks and they stained the cells that grew. […] These aptamers may originate from the remaining background of slowly proliferating cells during the seventh screening iteration, independently of the expressed aptamers. […] This could be due to the fact that the CMTMR assay is more sensitive in detecting modest antiproliferative effects than the colony formation assay or that some peptide aptamers somehow enhance the CMTMR labeling of their host cells.
(§3) To stably express peptide aptamers in mammalian cells, the episomal eukaryotic expression vector pCEP4 that bears a CMV promoter and a hygromycin selection marker (InVitrogen) was used. Aptamer coding sequences were PCR amplified using the oligonucleotides
(§4) that contained a stop codon. The PCR products were digested with NheI and NotI and ligated into NheI/NotI-cut pCEP4 to create pEA-aptamer plasmids. 3×10^5 cells/well were plated in 6-well plates and transfected 24 h after using Jet PEI (Qbiogen), 3.7 μg pEA-aptamer plasmids and 0.3 μg pEGFP-C1 (Clontech) to monitor transfection. Hygromycin (InVitrogen) was added at 200 μg/ml two days later and the cells were cultured for 2 weeks, renewing the medium twice a week. The cells were then rinsed in PBS and were fixed and stained by incubating 30 min in crystal violet (0.05% crystal violet, 20% ethanol, 0.37% formaldehyde). Excess crystal violet was removed by washing with water. In Vitro Phosphatase Assay

Hela cells = experiment: as above; format: cell-based; conditions: continuous expression 2 weeks, compared to AptaLib and human thioredoxin
Experimental: as §1, §2, §3, §4

CNA = experiment: Yeast two-hybrid assay; format: binding, human; conditions: mating assay, LexA-aptamer fusions
From the text: (A) Yeast two-hybrid mating assay. TB50α yeast were co-transformed with pSH18-34T (bearing a lacZ reporter gene) and plasmids directing the expression of LexA alone or in fusion with peptide aptamers R5G42, R7G44 or R5G52. MB210a yeast were transformed with the selected cDNA library plasmids directing the expression of CNAβ, CNAγ, and NS5ATP2 truncated proteins. To obtain negative controls, MB210a yeast were also transformed with the empty prey plasmid (pJG4-5) and with pJG4-5 directing the expression of Ras and FKBP12 prey proteins. To obtain a positive control, MB210a yeast were transformed with pJG4-5 directing the expression of RG22 peptide aptamer prey fusion protein that interacts with LexA in the context of most LexA fusion proteins.
The inventors set out to map the R5G42 binding site on CNA. The CNA interacting clones selected in the yeast two-hybrid experiments corresponded to the carboxy-terminal regions of the beta and gamma isoforms, encompassing the calmodulin-binding domain and the auto-inhibitory domain (see FIG. 3B). […] The LexA-R5G52 bait protein may thus not be properly expressed and/or folded in this yeast two-hybrid setting.
(§5) The inventors explored the ability of R5G42 mutants having a one amino acid change as compared to R5G42, to bind to CNA beta and gamma C-Terminal fragments (FIG. 3b) and to NS5A-TP2. To this end, they proceeded to yeast-two hybrid assays as in example 3. CNA beta and gamma C-Terminal fragments (FIG. 3b) and NS5A-TP2 were cloned in three different plasmids (pSH18-34, pJK103 and pRB18-40), which differed from each other in the level of sensitivity of their promoter to the bait/prey complex formation, pSH18-34 having the highest sensitivity and pRB18-40 having the lowest.
The 5′ end of RH6 (upper case) matches part of the HA epitope tag and the 5′ ends of RH4, RH3 and RH7 (upper case) match the 5′ extremity of the ADH terminator. The PCR reactions was performed using pCMV-SPORT6-CnAβ as a template. CnAβCter Δ1, Δ2, CaM were constructed by combining oligonucleotides RH6/RH4, RH6/RH3, RH6/RH7, respectively. […]

[1] = test system: Raw1 cells (osteoclasts precursors); experiment: Raw cell differentiation assay (osteoclast differentiation); format: cell-based
From the text: Trx, CNA* and Peptide aptamers R5G42, C2, C7, C8 and N9 were transfected into RAW1 cells and left for four days in absence of the normal differentiation factor RANKL. CNA* is activated calcineurin A which elicits a robust differentiation response.
The inventors assessed the ability of some CNA-specific peptide aptamers to promote osteoclast differentiation via the activation of CNA. […] The differentiation state was then observed 4 days post-transfection.
Raw1 cells were transfected with the following plasmids: pCI-HA-Trx (negative control), pCI-HA CNA* (positive control for differentiation activation), pCI-HA R5G42, pCI-HA R5G42-C2, pCI-HA R5G42-C7, pCI-HA R5G42-C8 and pCI-HA R5G42-N9. The sequence of CNA* is the same as that of CNA8 (see FIG. 17, SEQ ID 42). The sequences of the R5G42 (SEQ ID 22), C2 (SEQ ID 23), C7 (SEQ ID 27), C8 (SEQ ID 28) and N9 (SEQ ID 33) aptamers is shown on FIG. 8.
One day before the transfection, Raw I cells were plated in 6-well dishes at 50 cell/mm^2. Transfection was performed with FuGene 6 Reagent (Roche) using 2 μg of each plasmid and following supplier recommendations.
8 h after transfection D-MEM was changed with α-MEM. In the control dishes α-MEM+50 ng/ml RANKL was added. After 2 days, medium was changed with a fresh medium. The differentiation state was then observed 4 days post-transfection.

NS5A-TP2 = biological target: T1, NS5A-TP2; experiment: Further yeast two-hybrid binding assays (higher sensitivity)
From the text: FIG. 14. Specificity of aptamers according to the invention for CNA and NS5A-TP2 Interaction matrix between peptide aptamers R5G42, C2, C7, C8, N9, R5G44 and R5G52 with CNA constructs CNA1-CNA8 (A) CNA9-11 (B) and NS5A-TP2 (C). An interaction phenotype between CNA3/CNA 11, which both contain the Calmodulin binding domain (CaM) and the auto-inhibitory domain (Al) but not the CNB binding domain (CNB) and the aptamers R5G42, C2, C7, C8 and N9 is observed in a two-hybrid assay. R5G44 and R5G52 aptamers recognize neither the CNA fragments, nor NS5A-TP2. Only aptamers R5G42 and N9 recognize NS5A-TP2.
The inventors proceeded to further yeast two-hybrid binding assays between peptide aptamers R5G42 (SEQ ID 22), C2 (SEQ ID 23), C7 (SEQ ID 27), C8 (SEQ ID 28), N9 (SEQ ID 33), R5G44 and R5G52 with CNA constructs CNA1-CNA8 (FIG. 14A), CNA9-CNA11 (FIG. 14B) and NS5A-TP2 (SEQ ID 15) (FIG. 14C). The sensitivity of this yeast two-hybrid assay was higher than in the experiment reported above.

[2] = test system: CNA gamma C-terminal fragment; experiment: Yeast two-hybrid assays of R5G42 mutants; format: binding, human; conditions: plasmids pSH18-34, pJK103, pRB18-40
Experimental: (§6) The capacity of R5G42 mutants having a one amino acid change as compared to R5G42 to bind CNA beta and gamma C-Terminal fragments (FIG. 3b) and NS5A-TP2 was tested in yeast two-hybrid assays. CNA beta and gamma C-Terminal fragments and NS5A-TP2 were cloned in three different vectors (pSH18-34, pJK103 and pRB18-40). These three plasmids differ from each other in the level of sensitivity of their promoter, pSH18-34 having the highest sensitivity and pRB18-40 having the lowest.
as §5

[3] = biological target: T2, CNA beta C-terminal fragment (Homo sapiens, UniProt P16298); experiment: Yeast two-hybrid assays of R5G42 mutants; format: binding; conditions: plasmids pSH18-34, pJK103, pRB18-40
T2 construct: expressed in transfected cells; host or cells: yeast (MB210a transformed with library plasmid, mated with bait strain)
Experimental: as §6, §5

[4] = 4 days post-transfection, absence of RANKL

Sequence of CNA gamma C-terminal fragment (P48454 386-512 limits assumed): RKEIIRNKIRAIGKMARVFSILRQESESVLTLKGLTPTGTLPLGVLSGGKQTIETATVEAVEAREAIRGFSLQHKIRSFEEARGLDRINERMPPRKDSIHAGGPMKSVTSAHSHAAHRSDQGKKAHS

Molecule | inhibition of cell proliferation (colony formation) (MCF-7 cells) | inhibition of cell proliferation (colony formation) (Hela cells) | yeast two-hybrid interaction phenotype with CNA (CNA) | osteoclast differentiation ([1]; control conditions, 50 ng/ml RANKL) | recognition of NS5A-TP2 (NS5A-TP2) | yeast two-hybrid interaction [2] | yeast two-hybrid interaction [3] | osteoclast differentiation [1, 4]
R7G11: peptide aptamer: variable region LHLAGRGWEN in human thioredoxin (SEQ ID 30) (Aptamer variable sequence of R7G11) | did not inhibit cell proliferation | did not inhibit cell proliferation |  |  |  |  |  | 
R7G44: peptide aptamer: variable region HQSTIGVAEF in human thioredoxin (SEQ ID 31); control without antiproliferative effect | did not exert any antiproliferative effect | did not exert any antiproliferative effect | did not show an interaction phenotype |  |  |  |  | 
receptor activator of nuclear factor (NF)-κB ligand (protein, UniProt O14788 140-317, looked up, TNF family cytokine, normal osteoclast differentiation factor) Tumor necrosis factor ligand …: IRAEKAMVDGSWLDLAKRSKLEAQPFAHLTINATDIPSGSHKVSLSSWYHDRGWAKISNMTFSNGKLIVNQDGFYYLYANICFRHHETSGDLATEYLQLMVYVTKTSIKIPSSHTLMKGGSTKYWSGNSEFHFYSINVGGFFKLRSGEEISIEVSNPSLLDPDQDATYFGAFKVRDID |  |  |  | differentiated into osteoclasts |  |  |  | 
C2: R5G42 mutant having a one amino acid change (SEQ ID 23) (protein, Aptamer R5G42 mutant C2) MVKQIESKTAFQEALDAAGDKLVVVDFSATWCGPSAVTFAVCALGPCKMIKLFFHSLSEKYSNVIFLEVDVDDCQDVASECEVKCMPTFQFFKKGQKVGEFSGANKEKLEATINELV |  |  |  |  | only aptamers which recognized NS5A-TP2 were R5G42 and N9 | shown to interact | shown to interact | no osteoclasts fully differentiated were detectable
C7: R5G42 mutant having a one amino acid change (SEQ ID 27) (protein, Aptamer R5G42 mutant C7) MVKQIESKTAFQEALDAAGDKPVVVDFSATWCGPSAVTFAVCALGPCKMIKPFFHSLSEKYSNVIFLEVDVDDCQDVASECEVKCMPTFQFFKKGQKVGEFSGANKEKLEATINELV |  |  |  |  | only aptamers which recognized NS5A-TP2 were R5G42 and N9 | shown to interact | shown to interact | Some cells with the osteoclast phenotype can be observed
C8: R5G42 mutant having a one amino acid change (SEQ ID 28) (protein, Aptamer R5G42 mutant C8) MVKQIESKTAFQEALDAAGDKLVVVDFSATWCGPSAVTIAVCALGPCKMIKPFFHSLSEKYSNVIFLEVDVDDCQDVASECEVKCMPTFQFFKKGQKVGEFSGANKEKLEATINELV |  |  |  |  | only aptamers which recognized NS5A-TP2 were R5G42 and N9 | shown to interact | shown to interact | no osteoclasts fully differentiated were detectable

From patent publication US8440804B2, “Polypeptides having modulatory effects on cells” (Ecole Normale Superieure de Lyon, priority 2006, dated 2013)
